Blank lines part the entries; values can stand above or below the binder they belong to.
Assays:
[1] = biological target: T1, human PCSK9 (proprotein convertase subtilisin kexin type 9) (human, UniProt Q8NBP7 31-692, biotinylated in the BLI assay (site not stated)); assay: ITC, 37 C, average of 3 experiments
T1 construct: Immobilized directly (SPR), biotinylated on streptavidin tips (BLI), recombinant from baculovirus (FRET); also called hPCSK9
Protocol: Solution phase binding was measured in 25 mM HEPES, pH 7.41, 150 mM NaCl at 37° C.

[2] = biological target: T1, human PCSK9 (proprotein convertase …); assay: ITC, 37 C

T1 sequence (Q8NBP7 31-692 limits assumed): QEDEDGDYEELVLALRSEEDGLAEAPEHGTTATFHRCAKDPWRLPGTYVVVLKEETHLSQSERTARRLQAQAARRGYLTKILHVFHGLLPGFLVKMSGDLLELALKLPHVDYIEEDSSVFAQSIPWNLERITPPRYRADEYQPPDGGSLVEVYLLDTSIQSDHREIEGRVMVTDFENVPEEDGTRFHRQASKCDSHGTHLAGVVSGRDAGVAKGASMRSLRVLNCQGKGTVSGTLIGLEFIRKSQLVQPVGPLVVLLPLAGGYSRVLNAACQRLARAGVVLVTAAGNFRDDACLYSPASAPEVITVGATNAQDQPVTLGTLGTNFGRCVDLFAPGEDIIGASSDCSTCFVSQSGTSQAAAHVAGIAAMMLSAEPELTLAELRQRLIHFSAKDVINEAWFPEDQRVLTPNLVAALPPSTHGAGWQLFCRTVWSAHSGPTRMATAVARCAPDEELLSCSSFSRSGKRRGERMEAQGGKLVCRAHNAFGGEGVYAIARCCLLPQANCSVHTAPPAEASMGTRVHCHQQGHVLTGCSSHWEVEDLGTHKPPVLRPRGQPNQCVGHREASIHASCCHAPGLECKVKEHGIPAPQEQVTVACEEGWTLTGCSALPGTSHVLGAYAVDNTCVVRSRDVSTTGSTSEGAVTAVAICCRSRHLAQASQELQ

ΔS [1]: -55.8 cal/mol ° C.
B1: ATI001174 [2013E01-non His tagged Cys mut], pegylated (designed binder)
chain: MGVSDVPRDLEVVAATPTSLLISWVPPSDDYGYYRITYGETGGNSPVQEFTVPIGKGTATISGLKPGVDYTITVYAVEFPWPHAGYYHRPISINYRTEIEKPCQ
modifications: pegylated via the cysteine of the EIEKPCQ tail (asterisk in Table 5)
notes: PEGylated, non His tagged cysteine mutant of 2013E01; also called ATI1174

ΔS [2]: -45.4 cal/mol ° C.
B2: anti-PCSK9 Adnectin 2013E01 (designed binder)
chain: MGVSDVPRDLEVVAATPTSLLISWVPPSDDYGYYRITYGETGGNSPVQEFTVPIGKGTATISGLKPGVDYTITVYAVEFPWPHAGYYHRPISINYRTEIDKPSQHHHHHH
notes: also called ATI001081

— patent US20240239870A1 (published 2024)
